The results in this text go back to PMC9301129.

What all share (conditions): glycan lost; control: UNC93B1(WT)
Data set [1] is described as follows: blot of TLR9 in isolated phagosomes.
Data set [2] is described as follows: TLR9 co-IP after CpG DNA, anti-MyD88 blot.
The nature of data set [3]: streptavidin pull-down, anti-myc blot, KO iBMDM.
A short description of data set [4]: cycloheximide chase, anti-GFP blot, UNC93B1 KO iBMDM.
Data set [5] is described as follows: confocal microscopy, colocalisation with CD63, KO BMDC.
The nature of data set [6]: confocal microscopy, TLR9-GFP with CD63-cherry, KO BMDC.
A short description of data set [7]: cycloheximide chase, anti-myc blot, full-length and cleaved TLR9.

B1: UNC93B1: N272Q (protein)
parent chain: MEVEPPLYPVAGAAGPQGDEDRHGVPDGPEAPLDELVGAYPNYNEEEEERRYYRRKRLGVVKNVLAASTGVTLTYGVYLGLLQMQLILHYDETYREVKYGNMGLPDIDSKMLMGINVTPIAALLYTPVLIRFFGTKWMMFLAVGIYALFVSTNYWERYYTLVPSAVALGMAIVPLWASMGNYITRMSQKYYEYSHYKEQDEQGPQQRPPRGSHAPYLLVFQAIFYSFFHLSFACAQLPMIYFLNNYLYDLNHTLINVQSCGTKSQGILNGFNKTVLRTLPRSKNLIVVESVLMAVAFLAMLMVLGLCGAAYRPTEEIDLRSVGWGNIFQLPFKHVRDFRLRHLVPFFIYSGFEVLFACTGFALGYGVCSMGLERLAYLLIAYSLGASASSVLGLLGLWLPRSVPLVAGAGLHLLLTLSLFFWAPAPRVLQHSWIFYFVAALWGVGSALNKTGLSTLLGILYEDKERQDFIFTIYHWWQAVAIFVVYLGSSLPMKAKLAVLLVTLVAAAASYLWMEQKLQQGLVPRQPRIPKPQHKVRGYRYLEEDNSDESDMEGEQGQGDCAEDEAPQAGPLGAEPAGPCRKPCPYEQALGGDGPEEQ
Consider B1, for which, in data set [1], the “other: TLR9 trafficking to phagosomes” value is “no change”. The “other: MyD88 recruitment to TLR9” value in data set [2] is “decreases”. Also, the “other: CpG DNA binding by client TLR9” value in data set [3] is given as “no change”. Besides, in data set [4], the degradation_or_half_life entry is “no change”. Also, in data set [5], the localisation_or_trafficking result is “no change”. Moreover, the “other: endosomal localisation of client TLR9” value in data set [6] was “no change”. Also, the “other: stability and processing of client TLR9” value in data set [7] was “no change”.

B2: UNC93B1: N251Q (protein)
parent chain: B1 parent chain
As to B2, the “other: MyD88 recruitment to TLR9” value in data set [2] is given as “no change”. In addition, in data set [3], the “other: CpG DNA binding by client TLR9” value is “no change”. The degradation_or_half_life entry in data set [4] is recorded as “no change”. Besides, the localisation_or_trafficking entry in data set [5] is reported as “no change”. Moreover, in data set [6], the “other: endosomal localisation of client TLR9” value was “no change”. In addition, in data set [7], the “other: stability and processing of client TLR9” value is given as “no change”.

B3: UNC93B1: N251Q/N272Q (protein)
parent chain: B1 parent chain
Regarding B3, the “other: MyD88 recruitment to TLR9” value in data set [2] is given as “decreases”.
